According to article PMC8526164:

How the values were obtained:
[1] = system: AtEndoV (WT) (Arabidopsis thaliana); assay: SPR; conditions: SPR (ProteOn XPR36, NLC chip): PBS, 0.005% Tween 20, pH 7.4, 1 mM EDTA, no divalent metal, 25 C, protein 31.25-500 nM
[2] = system: AtEndoV (Y100A) (Arabidopsis thaliana); assay: SPR; conditions: SPR (ProteOn XPR36, NLC chip): PBS, 0.005% Tween 20, pH 7.4, 1 mM EDTA, no divalent metal, 25 C, protein 31.25-500 nM
[3] = N at position 11 = deoxyinosine

Sequence | Kd [1, 3] [µM] | Kd [2, 3] [µM] | Kd ([1]; N at position 11 = inosine) [µM] | Kd ([2]; N at position 11 = inosine) [µM]
CTGTATGATGNAGATGCTGAC [ssDNA(dI) 21-mer] | 220 | 160 |  | 
CUGUAUGAUGNAGAUGCUGAC [ssRNA(I) 21-mer] |  |  | 0.002 | 0.12
